These are literature values, as cited in patent publication US9180102B2, “Methods for fabricating nano and microparticles for drug delivery” (BOARD OF REGENTS, THE UNIVERSITY OF TEXAS SYSTEM, priority 2005, dated 2015).

The target in this data set is Cathepsin B (Homo sapiens, UniProt P07858). As to conditions: degradation of peptide spacer by lysosomal protease.

For “Gly-Phe-Leu-Gly (GFLG; printed: Gly-Phe-Leu-Gly)”, the “sensitivity of peptide spacer sequence to Cathepsin B” value is recorded as “especially sensitive”.
